From article PMC5526462 (Biochemistry, 2017)
Where two headings read alike, the source gives them in different places. Blank lines part the entries; values can stand above or below the molecule they belong to.

B2: Methylobacterium extorquens PqqD (MePqqD), truncation of the natural MePqqCD fusion (domain or fragment)
chain: MEPTAFSGSDVPRLPRGVRLRFDEVRNKHVLLAPERTFDLDDNAVAVLKLVDGRNTVSQIAQILGQTYDADPAIIEADILPMLAGLAQKRVLER

Experiments:
[1] = molecular target: PqqE (Methylorubrum extorquens) (UniProt B7KXC6); conditions: cited from earlier work
[2] = molecular target: PqqD (Methylorubrum extorquens) (UniProt Q49148); conditions: cited from earlier work
Chain of PqqD (Methylorubrum extorquens) (Q49148 whole entry): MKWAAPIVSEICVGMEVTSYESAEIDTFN

[3] = molecular target: PqqE (Methylorubrum extorquens) (UniProt B7KXC6); conditions: cited from earlier work; remark: listed apart in the source
[4] = molecular target: T1, Methylobacterium extorquens PqqE (His6-MePqqE) (Methylobacterium extorquens, UniProt P71517 1-384); experiment: NMR titration
T1 sequence (looked up): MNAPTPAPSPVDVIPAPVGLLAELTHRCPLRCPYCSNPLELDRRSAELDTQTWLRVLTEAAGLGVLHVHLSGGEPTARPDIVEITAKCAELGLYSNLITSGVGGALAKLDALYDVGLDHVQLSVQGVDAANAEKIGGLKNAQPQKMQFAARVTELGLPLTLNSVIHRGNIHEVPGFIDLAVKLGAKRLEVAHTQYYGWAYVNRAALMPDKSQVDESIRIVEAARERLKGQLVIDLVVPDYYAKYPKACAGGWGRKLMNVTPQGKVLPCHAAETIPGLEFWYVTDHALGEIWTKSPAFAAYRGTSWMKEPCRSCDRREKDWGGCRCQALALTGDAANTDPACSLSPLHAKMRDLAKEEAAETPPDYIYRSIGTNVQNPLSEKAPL

[5] = molecular target: B2; experiment: NMR titration

Molecule: PqqD-PqqA complex (from UniProt Q49148)
Kd [1]: 5 µM

Molecule: PqqA (from UniProt Q49148)
Kd [2]: 0.2 µM

Molecule: PqqD (from UniProt Q49148)
Kd [3]: 12 µM

binding result [4]: binds
B1: MePqqD + MePqqA binary complex (complex, Methylobacterium extorquens)
chain: MEPTAFSGSDVPRLPRGVRLRFDEVRNKHVLLAPERTFDLDDNAVAVLKLVDGRNTVSQIAQILGQTYDADPAIIEADILPMLAGLAQKRVLER
peptide: KWAAPIVSEISVGMEVTSYESAEIDTFN

Molecule: B2
binding result [4]: binds

binding result [5]: binds
B3: MePqqA precursor peptide (without the N-terminal methionine, cysteine 11 changed to serine) (peptide)
peptide: KWAAPIVSEISVGMEVTSYESAEIDTFN
